Consider one molecule from paper PMC10985028 (Acta Pharmaceutica Sinica. B, 2024).

The assay addresses T1, HA-tagged USP48 (human, UniProt Q86UV5 1-1035).
T1 sequence (looked up): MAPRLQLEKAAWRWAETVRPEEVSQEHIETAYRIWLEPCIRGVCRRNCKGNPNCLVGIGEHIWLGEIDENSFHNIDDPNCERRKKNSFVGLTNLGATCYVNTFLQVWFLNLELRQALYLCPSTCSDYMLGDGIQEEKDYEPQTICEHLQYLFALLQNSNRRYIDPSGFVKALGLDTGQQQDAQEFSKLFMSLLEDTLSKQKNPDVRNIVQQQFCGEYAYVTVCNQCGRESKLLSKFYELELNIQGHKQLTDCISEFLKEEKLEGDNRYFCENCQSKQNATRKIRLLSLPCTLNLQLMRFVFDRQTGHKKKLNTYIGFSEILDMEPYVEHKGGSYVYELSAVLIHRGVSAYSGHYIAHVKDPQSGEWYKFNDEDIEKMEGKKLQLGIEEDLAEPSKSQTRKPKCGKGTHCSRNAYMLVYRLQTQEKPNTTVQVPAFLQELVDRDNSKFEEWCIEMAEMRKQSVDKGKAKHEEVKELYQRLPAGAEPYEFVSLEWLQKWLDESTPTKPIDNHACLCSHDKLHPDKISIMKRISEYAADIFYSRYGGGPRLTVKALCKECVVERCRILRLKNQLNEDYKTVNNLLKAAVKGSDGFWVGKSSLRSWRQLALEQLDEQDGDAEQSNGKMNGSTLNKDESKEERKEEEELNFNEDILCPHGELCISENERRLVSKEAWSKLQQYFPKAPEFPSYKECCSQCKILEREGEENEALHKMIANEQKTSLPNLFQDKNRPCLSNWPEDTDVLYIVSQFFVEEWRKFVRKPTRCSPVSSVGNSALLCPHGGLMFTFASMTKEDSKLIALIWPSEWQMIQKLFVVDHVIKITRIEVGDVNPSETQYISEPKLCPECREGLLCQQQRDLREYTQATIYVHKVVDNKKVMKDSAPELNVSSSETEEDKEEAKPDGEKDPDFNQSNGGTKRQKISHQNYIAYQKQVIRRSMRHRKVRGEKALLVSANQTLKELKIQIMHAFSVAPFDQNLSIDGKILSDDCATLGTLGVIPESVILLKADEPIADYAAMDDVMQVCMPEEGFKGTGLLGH
Kind of assay: pull-down.

B1: GST-HMGA2 (natural protein, human, UniProt P52926 1-109, looked up)
chain: MSARGEGAGQPSTSAQGQPAAPAPQKRGRGRPRKQQQEPTGEPSPKRPRGRPKGSKNKSPSKAAQKKAEATGEKRPRGRPRKWPQQVVQKKPAQEETEETSSQESAEED
On to B1, for which the binding result is on record as “binds”.
